T1: GST-tagged first WD40 domain of Elp1, Q06706
T1 chain: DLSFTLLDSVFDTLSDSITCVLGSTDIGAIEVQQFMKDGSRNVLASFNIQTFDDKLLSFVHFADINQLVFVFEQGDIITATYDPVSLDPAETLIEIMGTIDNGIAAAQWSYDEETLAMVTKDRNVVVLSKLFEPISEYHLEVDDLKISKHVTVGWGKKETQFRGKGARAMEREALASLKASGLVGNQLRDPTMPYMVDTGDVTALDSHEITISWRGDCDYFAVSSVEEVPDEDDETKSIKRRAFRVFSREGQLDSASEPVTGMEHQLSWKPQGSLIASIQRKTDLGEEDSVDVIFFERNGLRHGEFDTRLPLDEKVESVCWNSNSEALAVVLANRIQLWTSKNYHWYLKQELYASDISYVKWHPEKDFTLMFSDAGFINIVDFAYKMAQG


Target: T1, GST-tagged first WD40 domain of Elp1, …
Experiment: GST pull-down, quantified from Coomassie SDS-PAGE
Details: chain shown with the change;; parent: est. 1.0; read off a plot

Row | ratio to parent | Binder
1 | 0.11 | recombinant Kti12 (wild type), His-tagged, P34253 K225A; K228A; K235A; R281A; K283A; R284A; K291A (protein) MPLVLFTGYPCSGKTTLAKHLVQLLQSKIDATPSLSKYSITYHSDESLGIKHSDYITSQDERKLRSEIISAVKRDLSKNKIVIVDSLNYIKGFRYQLHCEVKNLSTTFCVIQTLCPPETIFEWNKTSNPNPWEPELLNQLIQRYEEPNSSNRWDSPLFAILTPQDNITDYIDDICKVVFQTSKSAKNSGHNDPLSKGLQKPNSATVLKPASQSNFIQVLDIETSAIIATIMNHIASLTSIGGVSNGTRVIVSEGITDINDDGCFFVDLPIGNVVTLAQLQALAAQFINFNALRDIDQDRIGPLFADYLNKNLN
2 | 0.67 | recombinant Kti12 (wild type), His-tagged, P34253 K225A; K228A; K235A (protein) MPLVLFTGYPCSGKTTLAKHLVQLLQSKIDATPSLSKYSITYHSDESLGIKHSDYITSQDERKLRSEIISAVKRDLSKNKIVIVDSLNYIKGFRYQLHCEVKNLSTTFCVIQTLCPPETIFEWNKTSNPNPWEPELLNQLIQRYEEPNSSNRWDSPLFAILTPQDNITDYIDDICKVVFQTSKSAKNSGHNDPLSKGLQKPNSATVLKPASQSNFIQVLDIETSAIIATIMNHIASLTSIGGVSNGTRVIVSEGITDINDDGCFFVDLPIGNVVTLAQLQRLKRQFINFNKLRDIDQDRIGPLFADYLNKNLN
